Results: patent US20090047240A1 (CBIO, published 2009)

Experiments:
Experiment in all cases: FRET on MonoMac 6 cells, unstimulated and LPS-stimulated
CXCR4 = target: T1, CXCR4 (human, UniProt P61073 1-352)
T1 construct: whole, on cells

TLR4 = target: T2, TLR4 (human, UniProt O00206 24-839)
T2 construct: whole, on cells; also called Toll-like receptor 4

CD14 = target: T3, CD14 (human, UniProt P08571 20-345)
T3 construct: whole, on cells
T3 sequence (looked up): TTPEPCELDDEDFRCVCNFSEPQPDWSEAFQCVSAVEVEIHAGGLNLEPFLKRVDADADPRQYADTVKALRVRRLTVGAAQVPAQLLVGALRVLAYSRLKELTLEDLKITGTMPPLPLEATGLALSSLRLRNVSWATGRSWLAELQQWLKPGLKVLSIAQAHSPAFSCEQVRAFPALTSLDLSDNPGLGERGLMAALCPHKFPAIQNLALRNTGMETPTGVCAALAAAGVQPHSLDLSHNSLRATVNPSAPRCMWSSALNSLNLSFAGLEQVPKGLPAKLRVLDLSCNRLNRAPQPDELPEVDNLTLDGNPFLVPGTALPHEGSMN

Hsp70 = target: T4, Hsp70 (human, UniProt P0DMV8 2-641)
T4 construct: whole, on cells
T4 sequence (P0DMV8 2-641): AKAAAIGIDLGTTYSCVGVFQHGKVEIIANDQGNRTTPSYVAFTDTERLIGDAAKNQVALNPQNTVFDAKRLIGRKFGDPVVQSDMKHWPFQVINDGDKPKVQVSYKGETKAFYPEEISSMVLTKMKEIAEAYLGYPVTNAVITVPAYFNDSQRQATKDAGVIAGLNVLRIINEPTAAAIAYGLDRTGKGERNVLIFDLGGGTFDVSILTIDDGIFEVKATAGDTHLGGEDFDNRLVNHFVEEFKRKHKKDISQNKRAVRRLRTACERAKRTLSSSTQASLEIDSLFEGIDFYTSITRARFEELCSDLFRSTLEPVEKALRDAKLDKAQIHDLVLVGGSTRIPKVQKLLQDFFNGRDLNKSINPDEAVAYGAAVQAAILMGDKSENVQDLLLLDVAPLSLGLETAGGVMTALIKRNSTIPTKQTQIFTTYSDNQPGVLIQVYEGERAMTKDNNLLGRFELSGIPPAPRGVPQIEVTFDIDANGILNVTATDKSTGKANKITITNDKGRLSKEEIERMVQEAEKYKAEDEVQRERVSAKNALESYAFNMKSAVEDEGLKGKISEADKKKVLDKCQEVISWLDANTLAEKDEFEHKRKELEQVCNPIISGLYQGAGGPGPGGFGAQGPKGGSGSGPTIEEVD

Measured: binding result

T1 sequence (P61073 whole entry): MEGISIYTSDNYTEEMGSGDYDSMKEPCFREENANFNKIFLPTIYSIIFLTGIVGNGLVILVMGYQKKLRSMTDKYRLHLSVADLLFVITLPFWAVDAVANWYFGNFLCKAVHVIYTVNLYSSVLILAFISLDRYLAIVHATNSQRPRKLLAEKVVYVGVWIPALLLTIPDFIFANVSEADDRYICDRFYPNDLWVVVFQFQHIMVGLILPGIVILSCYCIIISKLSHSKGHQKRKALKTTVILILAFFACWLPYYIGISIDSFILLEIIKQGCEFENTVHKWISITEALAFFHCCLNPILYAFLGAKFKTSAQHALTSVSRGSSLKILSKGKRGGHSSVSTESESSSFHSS
T2 sequence (O00206 24-839): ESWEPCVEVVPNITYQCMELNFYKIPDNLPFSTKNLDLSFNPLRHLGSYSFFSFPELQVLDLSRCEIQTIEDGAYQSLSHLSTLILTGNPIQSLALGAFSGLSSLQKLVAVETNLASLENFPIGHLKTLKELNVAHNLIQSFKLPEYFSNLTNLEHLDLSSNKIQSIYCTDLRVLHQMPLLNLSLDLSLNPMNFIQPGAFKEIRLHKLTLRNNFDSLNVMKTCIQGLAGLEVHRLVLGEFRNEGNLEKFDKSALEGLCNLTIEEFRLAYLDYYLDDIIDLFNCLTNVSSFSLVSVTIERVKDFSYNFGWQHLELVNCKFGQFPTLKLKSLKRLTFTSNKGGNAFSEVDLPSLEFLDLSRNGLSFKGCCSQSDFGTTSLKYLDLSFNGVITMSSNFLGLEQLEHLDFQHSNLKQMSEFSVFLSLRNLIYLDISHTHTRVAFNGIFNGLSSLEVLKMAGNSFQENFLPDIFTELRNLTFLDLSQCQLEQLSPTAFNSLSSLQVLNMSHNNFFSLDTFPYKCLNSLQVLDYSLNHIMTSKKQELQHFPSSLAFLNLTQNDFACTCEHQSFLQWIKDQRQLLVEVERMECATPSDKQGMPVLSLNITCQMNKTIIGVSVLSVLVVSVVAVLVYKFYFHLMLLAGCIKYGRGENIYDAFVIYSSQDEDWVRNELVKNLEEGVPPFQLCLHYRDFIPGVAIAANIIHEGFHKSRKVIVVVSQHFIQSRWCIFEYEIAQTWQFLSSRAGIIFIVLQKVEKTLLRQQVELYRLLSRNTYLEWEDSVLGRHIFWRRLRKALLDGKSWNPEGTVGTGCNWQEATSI

B1: E. coli GroES (other)
chain: MNIRPLHDRVIVKRKEVETKSAGGIVLTGSAAAKSTRGEVLAVGNGRILENGEVKPLDVKVGDIVIFNDGYGVKSEKIDNEEVLIMSESDILAIVEA
notes: also called E. coli homologue of Cpn10
no binding: all assays above
